Assay results published in PMC10698503, “Phosphatase specificity principles uncovered by MRBLE:Dephos and global substrate identification” (Molecular Systems Biology, 2023).

Legend:
[1] = tested on: Venus-PP1; experiment: Affinity purification (pulldown) of YFP/Venus-PP1 from mitotic cells, label-free LC-MS/MS; type: binding, human; details: for B55 or PP1?: assignment of the co-purified protein as interactor of Venus-B55 and/or Venus-PP1 (both pulldowns); for log2 ratio [Venus-PP1/Venus]: enrichment in Venus-PP1 pulldown over Venus control, from 3 replicates each; for log2 IBAQ [Venus-PP1 1] / log2 IBAQ [Venus-PP1 2] / log2 IBAQ [Venus-PP1 3]: pulldown of Venus-PP1 from mitotic cells, label-free LC-MS/MS, log2 IBAQ of co-purified protein; for log2 IBAQ [Venus-PP1 1]: replicate 1; for log2 IBAQ [Venus-PP1 2]: replicate 2; for log2 IBAQ [Venus-PP1 3]: replicate 3
From the text: (§1) We defined interactomes of PP1γ and B55α during mitosis using affinity purification of YFP‐tagged subunits and also proximity‐dependent ligation using miniTurbo to capture interactions at mitotic exit (Appendix Fig S8) (Branon et al, [2018]; Sears et al, [2019]). […] These identified proteins can constitute both regulators and substrates. […] To understand how these protein interactions might shape dephosphorylation, we first aimed at generating interactome networks and overlay regulated sites. We integrated interactomes and information from the STRING database (Szklarczyk et al, [2023]) with our regulated phosphorylation sites to generate a network of complexes and dephosphorylation sites (Fig 4C and Appendix Fig S9A). For PP1, we also integrated information on known and predicted RVxF motifs (Smith et al, [2019]). […] As an example, CASC5 (KNL1) could scaffold PP1 dephosphorylation of CENPC S261, a phosphorylation site in a nuclear localization sequence. In agreement with previous work, PP2A‐B55 regulated dephosphorylation of several nucleoporins at mitotic exit consistent with Nup153 and TPR being present in the interactomes (Cundell et al, [2016]).
(§2) PP1 and B55 cDNAs were cloned into modified versions of pcDNA5/FRT/TO (Invitrogen) to make N‐terminal fusions to YFP, BioID, or TurboID. Stable cell lines were generated into HeLa/FRT/TRex cells (kind gift from S. Taylor), and for YFP affinity, purification cells were synchronized with thymidine and released into nocodazole‐containing media to arrest them in mitosis. Cells were resuspended in lysis buffer (50 mM NaCl, 50 mM Tris 7,4, 1 mM EDTA, 0.1% NP40, 1 mM DTT, and protease inhibitor cocktail), and following sonication, the lysate was clarified by centrifugation. Cell lysate was incubated with GFP‐Trap beads (Chromotek) for 1 h, washed 3 × 1 ml with lysis buffer, and resuspended in SDS–PAGE loading buffer.
(§3) The Q‐Exactive Plus was set to perform an Orbitrap MS1 scan (R = 70 K; AGC target = 1e6) from 350 to 1,500 m/z, followed by HCD MS2 spectra on the 10 most abundant precursor ions detected by Orbitrap scanning (R = 17.5 K; AGC target = 1e5; max ion time = 50 ms) before repeating the cycle. Precursor ions were isolated for HCD by quadrupole isolation at width = 1 m/z and HCD fragmentation at 26 normalized collision energy (NCE). Charge state 2, 3, and 4 ions were selected for MS2. Precursor ions were added to a dynamic exclusion list ± 20 ppm for 15 s. […] Static modifications included carbamidomethylcysteine and variable modifications included oxidized methionine. […] Missing values were imputed from a normal distribution in Perseus to enable statistical analysis and visualization by volcano plot (Tyanova et al, [2016]). Statistical analysis was carried out in Perseus by two‐tailed Student's t‐test.

[2] = tested on: Venus-B55; experiment: Affinity purification (pulldown) of YFP/Venus-B55 from mitotic cells, label-free LC-MS/MS; type: binding, human; details: for log2 ratio [Venus-B55/Venus]: enrichment in Venus-B55 pulldown over Venus control, from 3 replicates each; for log2 IBAQ [Venus-B55 1] / log2 IBAQ [Venus-B55 2] / log2 IBAQ [Venus-B55 3]: pulldown of Venus-B55 from mitotic cells, label-free LC-MS/MS, log2 IBAQ of co-purified protein; for log2 IBAQ [Venus-B55 1]: replicate 1; for log2 IBAQ [Venus-B55 2]: replicate 2; for log2 IBAQ [Venus-B55 3]: replicate 3
From the text: as §1, §2, §3

Molecule	B55 or PP1? [1]	log2 ratio [Venus-PP1/Venus] [1]	log2 IBAQ [Venus-PP1 1] [1]	log2 IBAQ [Venus-PP1 2] [1]	log2 IBAQ [Venus-PP1 3] [1]	log2 ratio [Venus-B55/Venus] [2]	log2 IBAQ [Venus-B55 1] [2]	log2 IBAQ [Venus-B55 2] [2]	log2 IBAQ [Venus-B55 3] [2]
SF01_HUMAN (protein, UniProt Q15637 2-639, looked up) Splicing factor 1: ATGANATPLDFPSKKRKRSRWNQDTMEQKTVIPGMPTVIPPGLTREQERAYIVQLQIEDLTRKLRTGDLGIPPNPEDRSPSPEPIYNSEGKRLNTREFRTRKKLEEERHNLITEMVALNPDFKPPADYKPPATRVSDKVMIPQDEYPEINFVGLLIGPRGNTLKNIEKECNAKIMIRGKGSVKEGKVGRKDGQMLPGEDEPLHALVTANTMENVKKAVEQIRNILKQGIETPEDQNDLRKMQLRELARLNGTLREDDNRILRPWQSSETRSITNTTVCTKCGGAGHIASDCKFQRPGDPQSAQDKARMDKEYLSLMAELGEAPVPASVGSTSGPATTPLASAPRPAAPANNPPPPSLMSTTQSRPPWMNSGPSESRPYHGMHGGGPGGPGGGPHSFPHPLPSLTGGHGGHPMQHNPNGPPPPWMQPPPPPMNQGPHPPGHHGPPPMDQYLGSTPVGSGVYRLHQGKGMMPPPPMGMMPPPPPPPSGQPPPPPSGPLPPWQQQQQQPPPPPPPSSSMASSTPLPWQQNTTTTTTSAGTGSIPPWQQQQAAAAASPGAPQMQGNPTMVPLPPGVQPPLPPGAPPPPPPPPPGSAGMMYAPPPPPPPPMDPSNFVTMMGMGVAGMPPFGMPPAPPPPPPQN	B55/PP1	4.15	19.13	19.69	20.57	3.74	18.20	19.35	19.45
GAR1_HUMAN (protein, UniProt Q9NY12 1-217, looked up) H/ACA ribonucleoprotein …: MSFRGGGRGGFNRGGGGGGFNRGGSSNHFRGGGGGGGGGNFRGGGRGGFGRGGGRGGFNKGQDQGPPERVVLLGEFLHPCEDDIVCKCTTDENKVPYFNAPVYLENKEQIGKVDEIFGQLRDFYFSVKLSENMKASSFKKLQKFYIDPYKLLPLQRFLPRPPGEKGPPRGGGRGGRGGGRGGGGRGGGRGGGFRGGRGGGGGGFRGGRGGGFRGRGH	B55/PP1	5.49	19.45	19.86	24.60	3.89	18.68	18.13	17.35
EBP2_HUMAN (protein, UniProt Q99848 1-306, looked up) Probable rRNA-processing …: MDTPPLSDSESESDESLVTDRELQDAFSRGLLKPGLNVVLEGPKKAVNDVNGLKQCLAEFKRDLEWVERLDVTLGPVPEIGGSEAPAPQNKDQKAVDPEDDFQREMSFYRQAQAAVLAVLPRLHQLKVPTKRPTDYFAEMAKSDLQMQKIRQKLQTKQAAMERSEKAKQLRALRKYGKKVQTEVLQKRQQEKAHMMNAIKKYQKGFSDKLDFLEGDQKPLAQRKKAGAKGQQMRKGPSAKRRYKNQKFGFGGKKKGSKWNTRESYDDVSSFRAKTAHGRGLKRPGKKGSNKRPGKRTREKMKNRTH	B55/PP1	6.44	24.17	24.63	27.56	1.82	20.14	18.75	20.44
